# Bridge positions count the residues as written; N and C are the ends. Ends that are not written are not given here. * marks the point of attachment. 5FAM = O=C1OC2(c3ccc(O)cc3Oc3cc(O)ccc32)c2ccc(C(=O)*)cc21
# T1: PfAMA1 (DI-DII of Plasmodium falciparum Apical Membrane Antigen 1, 3D7, residues 104-438) (Plasmodium falciparum, UniProt Q7KQK5 104-438)
# T1 construct: codon-optimized synthetic gene; also called native PfAMA1; PfAMA1 DI-DII construct
# T1 sequence: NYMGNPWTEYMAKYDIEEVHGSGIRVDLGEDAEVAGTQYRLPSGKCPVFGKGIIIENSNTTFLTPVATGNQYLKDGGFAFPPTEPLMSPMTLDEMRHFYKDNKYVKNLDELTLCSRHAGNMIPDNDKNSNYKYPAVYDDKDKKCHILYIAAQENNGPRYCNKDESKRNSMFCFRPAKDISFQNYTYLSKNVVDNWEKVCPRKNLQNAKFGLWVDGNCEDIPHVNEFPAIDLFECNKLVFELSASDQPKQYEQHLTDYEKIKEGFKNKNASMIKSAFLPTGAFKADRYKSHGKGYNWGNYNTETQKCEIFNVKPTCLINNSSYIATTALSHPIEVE
# What was measured:
# [1] = biological target: ΔDII-PfAMA1 (PfAMA1 DI-DII with residues 351-387 of the DII loop replaced by 7 Gly/Ser residues) (Plasmodium falciparum) (UniProt Q7KQK5); test: ITC; 25°C, MicroCal iTC200; cell: PfAMA1 or ΔDII-PfAMA1 (10 μM); syringe: PfRON2D3-TRX (110 μM), 17 injections of 2.2 μL; 20 mM Hepes pH 7.5, 150 mM NaCl; one binding site model
# [2] = biological target: F*PfRON2sp1 (39 aa) [2021-2059], fluorescein-labeled PfRON2sp1 peptide (Plasmodium falciparum); test: fluorescence polarisation; anisotropy titration at 20°C; 10 nM F*PfRON2sp1 titrated with protein (0 to 10 μM); PBS pH 7.4, at least 0.1% BSA
# [3] = biological target: F*PfRON2sp1 (39 aa) [2021-2059], fluorescein-labeled PfRON2sp1 peptide (Plasmodium falciparum); test: fluorescence polarisation; anisotropy titration at 25°C; 10 nM F*PfRON2sp1 titrated with protein (0 to 10 μM); PBS pH 7.4, at least 0.1% BSA
# [4] = biological target: F*PfRON2sp1 (39 aa) [2021-2059], fluorescein-labeled PfRON2sp1 peptide (Plasmodium falciparum); test: fluorescence polarisation; anisotropy titration at 30°C; 10 nM F*PfRON2sp1 titrated with protein (0 to 10 μM); PBS pH 7.4, at least 0.1% BSA
# [5] = biological target: F*PfRON2sp1 (39 aa) [2021-2059], fluorescein-labeled PfRON2sp1 peptide (Plasmodium falciparum); test: fluorescence polarisation; anisotropy kinetics at 20°C; association: 10 nM labeled probe with 50, 100, 200 nM protein; dissociation: 10 nM preformed complex challenged with 2500 or 5000 nM unlabeled PfRON2sp1; global fit to a one-intermediate model; PBS pH 7.4, at least 0.1% BSA
# [6] = biological target: F*PfRON2sp1 (39 aa) [2021-2059], fluorescein-labeled PfRON2sp1 peptide (Plasmodium falciparum); test: fluorescence polarisation; anisotropy kinetics at 25°C; association: 10 nM labeled probe with 50, 100, 200 nM protein; dissociation: 10 nM preformed complex challenged with 2500 or 5000 nM unlabeled PfRON2sp1; global fit to a one-intermediate model; PBS pH 7.4, at least 0.1% BSA
# [7] = biological target: F*PfRON2sp1 (39 aa) [2021-2059], fluorescein-labeled PfRON2sp1 peptide (Plasmodium falciparum); test: fluorescence polarisation; anisotropy kinetics at 30°C; association: 10 nM labeled probe with 50, 100, 200 nM protein; dissociation: 10 nM preformed complex challenged with 2500 or 5000 nM unlabeled PfRON2sp1; global fit to a one-intermediate model; PBS pH 7.4, at least 0.1% BSA
# [8] = biological target: T1, PfAMA1 (DI-DII of Plasmodium falciparum …); test: fluorescence polarisation; anisotropy titration at 20°C; 10 nM F*PfRON2sp1 titrated with protein (0 to 10 μM); PBS pH 7.4, at least 0.1% BSA; conditions: both partners purified
# [9] = biological target: T1, PfAMA1 (DI-DII of Plasmodium falciparum …); test: fluorescence polarisation; anisotropy titration at 25°C; 10 nM F*PfRON2sp1 titrated with protein (0 to 10 μM); PBS pH 7.4, at least 0.1% BSA; conditions: both partners purified
# [10] = biological target: T1, PfAMA1 (DI-DII of Plasmodium falciparum …); test: fluorescence polarisation; anisotropy titration at 30°C; 10 nM F*PfRON2sp1 titrated with protein (0 to 10 μM); PBS pH 7.4, at least 0.1% BSA; conditions: both partners purified
# [11] = biological target: T1, PfAMA1 (DI-DII of Plasmodium falciparum …); test: fluorescence polarisation; anisotropy kinetics at 20°C; association: 10 nM labeled probe with 50, 100, 200 nM protein; dissociation: 10 nM preformed complex challenged with 2500 or 5000 nM unlabeled PfRON2sp1; global fit to a one-intermediate model; PBS pH 7.4, at least 0.1% BSA; conditions: both partners purified
# [12] = biological target: T1, PfAMA1 (DI-DII of Plasmodium falciparum …); test: fluorescence polarisation; anisotropy kinetics at 25°C; association: 10 nM labeled probe with 50, 100, 200 nM protein; dissociation: 10 nM preformed complex challenged with 2500 or 5000 nM unlabeled PfRON2sp1; global fit to a one-intermediate model; PBS pH 7.4, at least 0.1% BSA; conditions: both partners purified
# [13] = biological target: T1, PfAMA1 (DI-DII of Plasmodium falciparum …); test: fluorescence polarisation; anisotropy kinetics at 30°C; association: 10 nM labeled probe with 50, 100, 200 nM protein; dissociation: 10 nM preformed complex challenged with 2500 or 5000 nM unlabeled PfRON2sp1; global fit to a one-intermediate model; PBS pH 7.4, at least 0.1% BSA; conditions: both partners purified
# [14] = biological target: T1, PfAMA1 (DI-DII of Plasmodium falciparum …); test: ITC; 25°C, MicroCal iTC200; cell: PfAMA1 or ΔDII-PfAMA1 (10 μM); syringe: PfRON2D3-TRX (110 μM), 17 injections of 2.2 μL; 20 mM Hepes pH 7.5, 150 mM NaCl; one binding site model; conditions: both partners purified
# [15] = biological target: T1, PfAMA1 (DI-DII of Plasmodium falciparum …); test: as above; conditions: both partners purified; remark: listed apart in the source
molecule,measurement,setting,value
"PfRON2D3-TRX (thioredoxin fusion of PfRON2D3, amino acids Asp2021 to Ser2059) (domain or fragment)",Kd,[1],92.6 nM
same,dH,[1],-11.8 kcal/mol
ΔDII-PfAMA1 (PfAMA1 DI-DII with residues 351-387 of the DII loop replaced by 7 Gly/Ser residues) (from UniProt Q7KQK5 104-350; Q7KQK5 388-438) (domain or fragment),Kd,[2],60 nM
same,Kd,[3],94 nM
same,Kd,[4],125 nM
same,Kd,[5],50 nM
same,complex half-life (calculated from the one-intermediate model),[5],166 s
same,complex half-life (experimental),[5],100 s
same,"k1 (step 1, forward: reactants to intermediate)",[5],78900 M⁻¹ s⁻¹
same,k1/k2 (association constant of step 1),[5],1.89e+07 M⁻¹
same,"k2 (step 1, reverse: intermediate to reactants)",[5],0.00417 s⁻¹
same,"k3 (step 2, forward: intermediate to complex)",[5],0.00459 s⁻¹
same,k3/k4 (equilibrium constant of step 2),[5],0.056
same,"k4 (step 2, reverse: complex to intermediate)",[5],0.0812 s⁻¹
same,Kd,[6],80.1 nM
same,complex half-life (calculated from the one-intermediate model),[6],69.9 s
same,complex half-life (experimental),[6],48 s
same,"dH (overall, summation of the transition states from the kinetic fit)",[6],-10.6 kcal/mol
same,dH of step 1 (formation of the intermediate),[6],-16.7 kcal/mol
same,"k1 (step 1, forward: reactants to intermediate)",[6],116000 M⁻¹ s⁻¹
same,k1/k2 (association constant of step 1),[6],1.17e+07 M⁻¹
same,"k2 (step 1, reverse: intermediate to reactants)",[6],0.0099 s⁻¹
same,"k3 (step 2, forward: intermediate to complex)",[6],0.0074 s⁻¹
same,k3/k4 (equilibrium constant of step 2),[6],0.067
same,"k4 (step 2, reverse: complex to intermediate)",[6],0.11 s⁻¹
same,Kd,[7],126 nM
same,complex half-life (calculated from the one-intermediate model),[7],30 s
same,complex half-life (experimental),[7],30 s
same,"k1 (step 1, forward: reactants to intermediate)",[7],168000 M⁻¹ s⁻¹
same,k1/k2 (association constant of step 1),[7],7.35e+06 M⁻¹
same,"k2 (step 1, reverse: intermediate to reactants)",[7],0.0229 s⁻¹
same,"k3 (step 2, forward: intermediate to complex)",[7],0.0117 s⁻¹
same,k3/k4 (equilibrium constant of step 2),[7],0.08
same,"k4 (step 2, reverse: complex to intermediate)",[7],0.147 s⁻¹
"5FAM-DITQQAKDIGAGPVASCFTTRMSPPQQICLNSVVNTALS (disulfide 17-29, Rhoptry Neck Protein 2 (RON2) of Plasmodium falciparum, residues 2021-2059; also called labeled peptide; labeled probe; source: synthetic peptide, bought: Kinexus (purity ≥ 95%)) [F*PfRON2sp1 (39 aa) [2021-2059], fluorescein-labeled PfRON2sp1 peptide]",Kd,[8],31 ± 2 nM
same,Kd,[9],43 ± 3 nM
same,Kd,[10],61 ± 5 nM
same,Kd,[11],32.3 ± 8 nM
same,Kd,[12],38.2 ± 10 nM
same,Kd,[13],43.8 ± 11 nM
"DITQQAKDIGAGPVASCFTTRMSPPQQICLNSVVNTALS (domain or fragment, Modified pET32a vector with N-terminal hexahistidine and thioredoxin tags and a thrombin cleavage site; the fusion was used uncleaved in ITC; also called TRX-fused peptide; not shown: thioredoxin (TRX), N-terminal, kept) [PfRON2D3-TRX (thioredoxin fusion of PfRON2D3, amino acids Asp2021 to Ser2059)]",Kd,[14],42.9 nM
same,dH,[15],-12.1 ± 0.1 kcal/mol
